The results in this text go back to patent US7052705 (dated 2006).

The IC50 is the concentration that inhibits the measured activity by half. A low value points to inhibition by little substance. As usually defined, the Kd is the free concentration of one partner at which half of the binding sites on the other are occupied at equilibrium, for simple one-to-one binding. The low end stands for tighter binding, the high end for weaker binding.

The target of assay [1] is T1, VEGFR-2 (human, UniProt P35968).
T1 chain: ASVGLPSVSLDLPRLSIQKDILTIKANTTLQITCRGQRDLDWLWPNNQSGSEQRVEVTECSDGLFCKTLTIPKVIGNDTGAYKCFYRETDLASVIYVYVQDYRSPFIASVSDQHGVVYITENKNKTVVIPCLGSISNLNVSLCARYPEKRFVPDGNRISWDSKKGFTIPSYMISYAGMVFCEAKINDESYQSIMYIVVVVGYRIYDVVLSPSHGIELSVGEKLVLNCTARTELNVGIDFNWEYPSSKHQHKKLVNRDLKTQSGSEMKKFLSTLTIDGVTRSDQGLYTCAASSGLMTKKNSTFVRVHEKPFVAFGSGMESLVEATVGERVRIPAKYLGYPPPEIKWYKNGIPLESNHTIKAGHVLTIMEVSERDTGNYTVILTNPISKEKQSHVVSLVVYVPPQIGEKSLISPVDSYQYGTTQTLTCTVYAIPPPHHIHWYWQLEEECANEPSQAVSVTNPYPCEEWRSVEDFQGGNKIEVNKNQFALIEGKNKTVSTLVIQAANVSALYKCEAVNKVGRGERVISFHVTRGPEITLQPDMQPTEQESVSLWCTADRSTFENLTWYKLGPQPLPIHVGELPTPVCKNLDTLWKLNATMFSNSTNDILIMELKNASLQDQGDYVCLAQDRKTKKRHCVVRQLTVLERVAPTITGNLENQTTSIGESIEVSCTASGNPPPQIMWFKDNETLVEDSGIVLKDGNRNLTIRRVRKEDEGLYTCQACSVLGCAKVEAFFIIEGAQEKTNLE
As to the kind of experiment: competition, COS-1.

Assay [2] addresses T2, Neuropilin-1 (NP-1) (human, UniProt O14786). Kind of assay: competition, COS-1.
For assay [3], the target named is T2, Neuropilin-1 (NP-1). As to the kind of experiment: competition, Balb/c.
Assay [4] addresses T3, VEGFR-2/NP-1 co-expressed (human, UniProt P35968). As to the kind of experiment: competition, 125I-VEGF165.
For assay [5], the target named is T2, Neuropilin-1 (NP-1). As to the kind of experiment: other, radioligand saturation COS-1.
The target of assay [6] is T2, Neuropilin-1 (NP-1). As to the kind of experiment: competition, COS-1. This is another data set of the same source.
In assay [7] the target is T1, VEGFR-2. As to the kind of experiment: competition, COS-1 cells, 4C.
Assay [8] has as its target T3, VEGFR-2/NP-1 co-expressed. Kind of assay: competition, COS-1.
In assay [9] the target is T3, VEGFR-2/NP-1 co-expressed. As to the kind of experiment: competition, Balb/c.
Target sequence in this assay (chain, as listed by the source, chain 2 of 2, one chain of several): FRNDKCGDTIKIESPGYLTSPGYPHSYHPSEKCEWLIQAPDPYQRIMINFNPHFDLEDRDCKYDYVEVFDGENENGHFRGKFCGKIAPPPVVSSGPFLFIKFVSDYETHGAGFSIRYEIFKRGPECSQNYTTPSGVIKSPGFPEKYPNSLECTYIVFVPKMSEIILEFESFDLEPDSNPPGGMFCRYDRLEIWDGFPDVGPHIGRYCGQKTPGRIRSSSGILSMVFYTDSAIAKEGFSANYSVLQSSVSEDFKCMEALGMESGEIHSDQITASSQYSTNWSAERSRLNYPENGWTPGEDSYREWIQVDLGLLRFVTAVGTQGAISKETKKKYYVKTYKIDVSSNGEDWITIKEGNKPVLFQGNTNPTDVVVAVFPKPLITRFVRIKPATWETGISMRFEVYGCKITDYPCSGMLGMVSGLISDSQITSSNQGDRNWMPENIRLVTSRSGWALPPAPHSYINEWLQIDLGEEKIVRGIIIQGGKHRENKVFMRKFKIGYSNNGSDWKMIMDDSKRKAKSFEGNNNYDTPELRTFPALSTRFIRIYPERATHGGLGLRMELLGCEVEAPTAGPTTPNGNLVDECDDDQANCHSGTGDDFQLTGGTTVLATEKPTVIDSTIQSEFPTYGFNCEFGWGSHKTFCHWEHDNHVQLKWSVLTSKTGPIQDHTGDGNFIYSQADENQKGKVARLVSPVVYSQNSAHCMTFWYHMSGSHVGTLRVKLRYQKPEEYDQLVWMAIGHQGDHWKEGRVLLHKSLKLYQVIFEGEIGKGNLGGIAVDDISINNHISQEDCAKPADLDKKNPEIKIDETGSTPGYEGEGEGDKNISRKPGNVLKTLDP

Bridge positions count the residues as written; N and C are the ends. Ends that are not written are not given here.

T2 sequence (O14786 22-923): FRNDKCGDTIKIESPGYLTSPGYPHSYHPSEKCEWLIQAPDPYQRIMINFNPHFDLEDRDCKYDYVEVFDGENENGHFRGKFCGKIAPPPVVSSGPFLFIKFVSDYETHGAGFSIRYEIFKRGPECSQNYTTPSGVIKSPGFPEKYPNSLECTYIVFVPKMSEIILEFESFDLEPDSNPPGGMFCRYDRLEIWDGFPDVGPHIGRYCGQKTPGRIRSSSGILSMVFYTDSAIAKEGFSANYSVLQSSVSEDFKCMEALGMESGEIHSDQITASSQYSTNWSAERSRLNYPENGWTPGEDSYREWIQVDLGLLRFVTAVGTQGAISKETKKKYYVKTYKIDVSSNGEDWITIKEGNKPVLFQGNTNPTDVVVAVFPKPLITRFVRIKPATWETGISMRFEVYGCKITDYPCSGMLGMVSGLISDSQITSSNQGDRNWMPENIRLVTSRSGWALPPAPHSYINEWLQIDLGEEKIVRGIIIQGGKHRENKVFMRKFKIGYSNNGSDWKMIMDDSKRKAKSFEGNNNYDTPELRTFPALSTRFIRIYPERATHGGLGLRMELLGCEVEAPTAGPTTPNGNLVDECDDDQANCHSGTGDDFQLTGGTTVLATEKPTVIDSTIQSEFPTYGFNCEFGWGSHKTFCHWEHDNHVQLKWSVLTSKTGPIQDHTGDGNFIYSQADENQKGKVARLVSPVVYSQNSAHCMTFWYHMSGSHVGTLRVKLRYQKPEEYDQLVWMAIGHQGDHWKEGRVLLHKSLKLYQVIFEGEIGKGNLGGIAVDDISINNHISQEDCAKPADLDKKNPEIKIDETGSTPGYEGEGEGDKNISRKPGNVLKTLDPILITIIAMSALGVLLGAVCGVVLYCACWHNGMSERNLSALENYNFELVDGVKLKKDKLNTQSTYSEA

B1: V8 (peptide)
chain: RPCDKPRR
As to B1, the binding result in the assay with VEGFR-2 [1] and with Neuropilin-1 (NP-1) [2] was “no binding” in each case.

B2: P6V8-3N (peptide)
chain: KGRGKRRREKQRPCDKPRR
As to B2, the IC50 with Neuropilin-1 (NP-1) [3] amounted to 254 nM.

B3: P6V8-3NCSC13C18 (peptide)
chain: KGRGKRRRECQRPSCKPRR
modifications: disulfide 10-15
On to B3, for which the binding result in the assay with VEGFR-2 [1] was “no binding”.

B4: P6V8-3NCSA3A5 (peptide)
chain: KGAGARRREKQRPSDKPRR
In the case of B4, the binding result with VEGFR-2 [1] is recorded as “no binding”.

B5: P6 (peptide)
chain: RRPKGRGKRRREKQRP
On to B5, for which the IC50 in assay [4] was 12200 nM.

B6: P6V8-3NCS1-7CCA5 (peptide)
chain: CKGRGARCREKQRPSDKPRR
modifications: disulfide 1-8
In the case of B6, the binding result in the assay with VEGFR-2 [1] is “no binding”.

B7: VEGF165 (protein)
chain: APMAEGGGQNHHEVVKFMDVYQRSYCHPIETLVDIFQEYPDEIEYIFKPSCVPLMRCGGCCNDEGLECVPTEESNITMQIMRIKPHQGQHIGEMSFLQHNKCECRPKKDRARQENPCGPCSERRKHLFVQDPQTCKCSCKNTDSRCKARQLELNERTCRCDKPRR
As for B7, the affinity in the assay with Neuropilin-1 (NP-1) [5], expressed as Kd, was 2.09 nM. Further, the figures for the half-inhibitory concentration (IC50) in the assay with Neuropilin-1 (NP-1) [3] and in the assay with Neuropilin-1 (NP-1) [6] were 0.158 nM and 0.582 nM, respectively.

B8: P6V8-3NCSA1A6 (peptide)
chain: AGRGKARREKQRPSDKPRR
For B8, the binding result in the assay with VEGFR-2 [1] is “no binding”.

B9: P6V8-3NCS1-7CCA1 (peptide)
chain: CAGRGKRCREKQRPSDKPRR
modifications: disulfide 1-8
For B9, the binding result in the assay with VEGFR-2 [1] is “no binding”.

B10: (cap)P6V8-3NCS1-7CC (peptide)
chain: CKGRGKRCREKQRPSDKPRR
modifications: disulfide 1-8; also: capped amino and carboxyl termini, chemistry of caps not given here
In the case of B10, the binding result with VEGFR-2 [1] was “no binding”.

B11: VEGF121 (protein)
chain: APMAEGGGQNHHEVVKFMDVYQRSYCHPIETLVDIFQEYPDEIEYIFKPSCVPLMRCGGCCNDEGLECVPTEESNITMQIMRIKPHQGQHIGEMSFLQHNKCECRPKKDRARQEKCDKPRR
On to B11, for which the IC50 in the assay with VEGFR-2 [7] turned out to be 0.312 nM. In addition, the binding result (in the assay with Neuropilin-1 (NP-1) [2]; in assay [8]) was “no binding” throughout.

B12: P6V8-3NCSA7,8,10,12 (peptide)
chain: KGRGKRAAEAQAPSDKPRR
As for B12, in the assay with VEGFR-2 [1], the binding result is on record as “no binding”.

B13: V8CS (peptide)
chain: RPSDKPRR
Take B13: the binding result in the assay with VEGFR-2 [1] is recorded as “no binding”.

B14: AS-3 (peptide)
chain: RRPKGRGKRAAAKQRPSDKPRR
Regarding B14, the binding result in assay [8] is recorded as “no binding”.

B15: P6V8-3NCS1-7CCA1A5 (peptide)
chain: CAGRGARCREKQRPSDKPRR
modifications: disulfide 1-8
For the molecule B15, the binding result with VEGFR-2 [1] is “no binding”.

B16: P6V8-9N (peptide)
chain: RREKQRPCDKPRR
As for B16, the binding result with VEGFR-2 [1] is recorded as “no binding”.

B17: RAND1 (peptide)
chain: PKRSRRKGQPRPRGRREKRDRK
As for B17, the binding result with VEGFR-2 [1] is reported as “no binding”.

B18: AS-4A (peptide)
chain: RRPKGRGKRRREKQRAAAKPRR
As for B18, the binding result with VEGFR-2 [1] was “no binding”.

B19: (cap)P6V8-3NCS (peptide)
chain: KGRGKRRREKQRPSDKPRR
modifications: also: (cap), group not given here
Turning to B19, the binding result in the assay with VEGFR-2 [1] is “no binding”.

B20: P6V8-3NCSA1A5 (peptide)
chain: AGRGARRREKQRPSDKPRR
Turning to B20, in the assay with VEGFR-2 [1], the binding result is on record as “no binding”.

B21: P6P7 (peptide)
chain: RRPKGRGKRRREKQRPDAVPRR
B21: in [4], the IC50 stood at 1170 nM.

B22: AS-1 (peptide)
chain: RRPAAAGKRRREKQRPSDKPRR
Turning to B22, in the assay with VEGFR-2 [1], the binding result was “no binding”.

B23: P6V8-3NCSA1,5,7,8,12 (peptide)
chain: AGRGARAAEKQAPSDKPRR
On to B23, for which, in the assay with VEGFR-2 [1], the binding result is given as “no binding”.

B24: AS-4 (peptide)
chain: RRPKGRGKRRREAAAPSDKPRR
In the case of B24, the half-inhibitory concentration (IC50) worked out at 300 nM in assay [9] and 17.8 nM in the assay with Neuropilin-1 (NP-1) [3]. Moreover, the binding result with VEGFR-2 [1] was “no binding”.

B25: P6V8-3NCSA3A6 (peptide)
chain: KGAGKARREKQRPSDKPRR
As for B25, in the assay with VEGFR-2 [1], the binding result is “no binding”.
